According to the DeepSol protein solubility set:

Test: soluble on expression in E. coli; label from the status in PepcDB or PDB records

| Sequence | soluble on expression in E. coli |
| --- | --- |
| EGYEQDFAVLTAEITSKIARVPRLPPDEKKQMVANVEKQLEEARELLEQMDLEVREIPPQSRGMYSNRMRSYKQEMGKLETDFKRSRIA | soluble |
| EKDTIAAEHKQEASVLLNLHRNKINYLIGETMARMTSLSIAIDRPVDIKKMQSILEKTFDSEPRFSGLYFLNAKGDVTASTTELKTKVNLADRSFFIKAKETKKTVISDSYSSRITGQPIFTICVPVLDSKRNVTDYLVAAIQIDYLKNLINLLSPDVYIEVVNQDGKMIFASGQASHAEDQKPVSGYLDDISWNMKVYPNPVTIEELSKS | not soluble |
| EKRVRRTRSLVEVLNVDPETGDLGINEIFNWYPSEDGFLKVGDSHIMQEIMHVRGWDSGQLRGEMENRRKILTYMYEKNMRSYIQVSLVVQAYQSYPKMVMEAIENNILQGMIQDMVA | not soluble |
| ELLKSGKAKDRFEGEENAPVTIVEYASLTCVHCAHFYNDVLPQIRKKYIKTGKVKLIFRDFAFDSRATAGFMLARCAPEDRYFPLIEVLFQKQSEWVWARDAVTPLKKIGLMAGFTDESFNACLKNQSILDEVNASFERGKELGVNATPTFFINGNKYEGAMSVEAFFSVIDSFLKN | not soluble |
| ELQVIQPEKSVSVAAGESATLRCAMTSLIPVGPIMWFRGAGAGRELIYNQKEGHFPRVTTVSELTKRNNLDFSISISNITPADAGTYYCVKFRKGSPDDVEFKSGAGTELSVRAKPSAPVVSG | soluble |
| ENAFKRRRCGVCEVCQQPECGKCKACKDMVKFGGSGRSKQACQERRCPN | soluble |
| ENGRLVELPDNDKSDALQFLATILEAVPSIPAGSNIVEIVLEHEKNSNTSLGFGWACPHARVNFDGDLCCAIGWSPAGIDYGIAGEPLVRLVVMFFVPENQRNTYLKEVSTLARVLKSNPEFQNLEPIGDLDQVRNTLLDMTHQAMSE | not soluble |
| ENSHNKARTSPYPGSKVERSQVPNEKVGWLVEWQDYKPVEYTAVSVLAGPRWADPQISESNFSPKFNEKDGHVERKSKNGLYEIENGRPRNPAGRTGLVGRGLLGRWGPNHAADPIITRWKRDSSGNKIMHPVSGKHILQFVAIKRKDCGEWAIPGGMVDPGEKISATLKREFGEEALNSLQKTSAEKREIEEKLHKLFSQDHLVIYKGYVDDPRNTDNAWMETEAVNYHDETGEIMDNLMLEAGDDAGKVKWVDINDKLKLYASHSQFIKLVAEKRDAHWSEDSEADCHAL | soluble |
| EQIVAAYDNSLLYTDHFLVRTIGMLRDMSDYDTAMIYLSDHGESLGEKGLYLHGMPYAIAPVEQTRVPMVIWFSKQFVQSRQIDLNCVHQRARQYADHDNLFSSVLGLMQVKTALYERPHDLFATCEK | not soluble |
| ERFAREPMAAGHRMWQMAGLKAQRAQTDVNNKKAAFDAAAKEKSDADVALSSALERRKQKENKEKDAKAKLDKESKRNKPGKATGKGKPVNNKWLNNAGKDLGSPVPDRIANKLRDKEFKSFDDFRKKFWEEVSKDPELSKQFSRNNNDRMKVGKAPKTRTQDVSGKRTSFELHHEKPISQNGGVYDMDNISVVTPKRHIDIHRGK | soluble |
| EVQDVNDSSWKEFVLESEVPVMVDFWAPWCGPCKLIAPVIDELAKEYSGKIAVYKLNTDEAPGIATQYNIRSIPTVLFFKNGERKESIIGAVPKSTLTDSIEKYL | soluble |
| EVQLQQSGPELVKPGASVKISCKASGYSFTGHLLNWVKQSHGKNLEWIGLVHPHNGAITYNQKFKDKATLTVDRSSTTAYIELVRLTSNDSAVYYCAREDFRYHYSMDYWGQGTSVTVSSAKTTPPSVYPLAPVCGDTTGSSVTLGCLVKGYFPEPVTLTWNSGSLSSGVHTFPAVLQSDLYTLSSSVTVTSSTWPSQSVTCNVAHPASSTKVDKKIVPK | soluble |
| EVVEDVLTNAIENGSSIQDIELTLKDMPQFDRERARTTAITEVLAASSAAQHESYAQSPAVKKKKWRHSGGKKNNPRENHIDLDGTVIGVDEEFQIPGSSETCMFPRDPKLSTRERVNCHCVLS | not soluble |
| FAADLNSNLNLFYTPSEIVNGKTDTGVKPEAGQRIRVGGMVTVGSMVRDPNSLHVQFAVHDSLGGEILVTYDDLLPDLFREGQGIVAQGVLGEDGKLAATEVLAKHDENYMPPEVAEAMGQKHEKLDYSQQKSATQ | soluble |
| FDGIFHTVKLLEPIQQSNADPAASFALFQQKFPNLKRVANSTLNTFDVYNLLSGWKSSLTAYLNQVLALQQRIKAADQIFPNQKETLPKDENPNIFEVLGAYGGKGFFPTLGSNGLHLPPQLFQFFRDFQLSSFTIKDFEVALVSEPDIVQHDKVRYAFQVQ | not soluble |
| FFFTVAFLLVFSIAGLVEILPDFAKASRPTENLKPYSMLETAGRQLYIKESCNACHSQLVRPFKSETDRYGAYSLSGEYAYDRPFLWGSKRTGPDLHRVGDYRTTDWHENHMMDPTSVVPGSIMPAYKHMFKNAADIETAYAEAYTNKVVFGVPYDQPSGIKLGSFEEAKAAMFEEAKLIVEDMKNQDVKDALARGEIKEIVALIAYMNSLGQ | not soluble |
| FHMNRVTGELGNRPLFSIADFTFYQGISCILGDNGVGKSTLFRSILQFQKYKGSITWKGSVLKKKKSLYRDLTGVVQEAEKQFIRVSLREELQLDGPDSERNQRIFQALRYFDLEQAVDKSPYQLSGGQQKILQLLTILTSKASVILLDEPFAGLDDRACHYFCKWIVEERNQGRSFLLISHRLDPLISVVDYWIEMTSQGLRHVKEVTITKPLTSQSSNTQGEVR | soluble |
| FLETLAKVKKIFIDKTGTLTQKEVLLKEKIIYEEFDGRLLKSLLKVREHLAHSAILKSLDGDEVSLEKIEFFAHGLKASYQNETLLVGSLKFLGSMGVDIPMKESANIMVGFAKNETLCALFILEERLKANAKEVVQALQNKGLELEILSGDNESSVKECAKKLGISNYHAHLTPEDKAQTISSYKGVCAMVGDGNNDALALKQASVSLGFEKSALSKSACDILLLEEDLSLLKKAFDNAQKVYQVVLQ | not soluble |
| FLPMSREEMDQLGWDACDFILVCGDAYIDHPSFVSGIIGRVLEAQGFRVGIIAQPDWTNVESFRVLGKPTIAWGVTAGNMDSMINRYTADRKIRSDDAYSPNNEPNKRPDRAATVYCQRCREAFPDVPVLLGGIEGSLRRIAHYDYWSDKVRRSILMDSKADLLMYGNGERAIIDVMHRLAKGEKIHEITDVRGTAFIINKHNKASKAQFIEIASNDVDTVGRVDPIINPYVMTEDIDGCEVEKEKGNSLAQYQNFQKEIVSKPVVREGDQLDKDTQIIQLKPVPSKAIKHKLPPRELAVIRLPSFEEVADDHVLYAHANRILHLETNPGNARALVQRHGERDVWINPPPIPLTTEEMDYVFDLPYARLPHSAYGDARFPAFDMIKFS | not soluble |
| FPSGSAQLSARLYLPAGTPQVAVVINGATGVPREYYQHFATWLAAERGIACLTYDYRDFGHSLRGPLAASTATMSDWALIDMPAAYAEMQRRYPDLPLWVIGHSVGGMLGPLQPGIEPIARMICVCSGLVHHSDHPWPYQALARLFWFGHAPLLVKTLGYLPGRRIGFGSDLPPGVYWEWRRWCTTPGAYLPEMGDRLPQADWSRSGAPVDMFAFEDDTTIPPNCVWRLADVYGETVRRHLLHPRAFGLREIGHLGAFARRNAALWPRLIA | not soluble |
| GAMAMPMIEYLERFSLKAKINNTTNLDYSRRFLEPFLRGINVVYTPPQSFQSAPRVYRVNGLSRAPASSETFEHDGKKVTIASYFHSRNYPLKFPQLHCLNVGSSIKSILLPIELCSIEEGQALNRKDGATQVANMIKYAATS | soluble |
| GAMGMTTYLEFIQQNEERDGVRFSWNVWPSSRLEATRMVVPVAALFTPLKERPDLPPIQYEPVLCSRTTCRAVLNPLCQVDYRAKLWACNFCYQRNQFPPSYAGISELNQPAELLPQFSSIEYVVLRGPQMPLIFLYVVDTCMEDEDLQALKESMQMSLSLLPPTALVGLITFGRMVQVHELGCEGISKSYVFRGTKDLSAKQLQEMLGLSKVPVTQATRGPQVQQPPPSNRFLQPVQKIDMNLTDLLGELQRDPWPVPQGKRPLRSSGVALSIAVGLLECTFPNTGARIMMFIGGPATQGPGMVVGDELKTPIRSWHDIDKDNAKYVKKGTKHFEALANRAATTGHVIDIYACALDQTGLLEMKCCPNLTGGYMVMGDSFNTSLFKQTFQRVFTKDMHGQFKMGFGGTLEIKTSREIKISGAIGPCVSLNSKGPCVSENEIGTGGTCQWKICGLSPTTTLAIYFEVVNQHNAPIPQGGRGAIQFVTQYQHSSGQRRIRVTTIARNWADAQTQIQNIAASFDQEAAAILMARLAIYRAETEEGPDVLRWLDRQLIRLCQKFGEYHKDDPSSFRFSETFSLYPQFMFHLRRSSFLQVFNNSPDESSYYRHHFMRQDLTQSLIMIQPILYAYSFSGPPEPVLLDSSSILADRILLMDTFFQILIYHGETIAQWRKSGYQDMPEYENFRHLLQAPVDDAQEILHSRFPMPRYIDTEHGGSQARFLLSKVNPSQTHNNMYAWGQESGAPILTDDVSLQVFMDHLKKLAVSSAA | soluble |
| GAMGNERRILEQKKHYFWLLLQRTYTKTGKPKPSTWDLASKELGESLEYKALGDEDNIRRQIFEDFKPE | soluble |
| GAMVMRLGDAAELCYNLTSSYLQIAAESDSIIAQTQRAINTTKSILINETFPKWSPLNGEISFSYNGGKDCQVLLLLYLSCLWEYYIVKLSQSQFDGKFHRFPLTKLPTVFIDHDDTFKTLENFIEETSLRYSLSLYESDRDKCETMAEAFETFLQVFPETKAIVIGIRHTDPFGEHLKPIQKTDANWPDFYRLQPLLHWNLANIWSFLLYSNEPICELYRYGFTSLGNVEETLPNPHLRKDKNSTPLKLNFEWEIENRYKHNEVTKAEPIPIADEDLVKIENLHEDYYPGWYLVDDKLERAGRIKKK | soluble |
| GASIRWEWRAARFADYLLQTRLKSRNNGLRVVYSITINLVPNHLDKRAHKYLGMVRQASRKYGVDESLILAIMQTESSFNPYAVSHADAMGLMQVVQHSAGRDVFRSQGKSGLPSRSYLFDPANNIDTGTAYLAMLNNVYLAGIDNPTSRRYAVITAYNGGAGSVLRVFSSDKVQAANIINSMAPGDVYQTLTTRHPSAESRRYLYKVNTAQKSYRRK | not soluble |
| GASIVGSWVEPVPGLEGQVQGIKMEEGGVASSVNMATLVYESWKQEGTKLILTGKSIGNGQTIEFVDTMDIKRLTADSLVLDNQGMEIRYAKQK | soluble |
| GDAAKGEKEFNKCKTCHSIIAPDGTEIVKGAKTGPNLYGVVGRTAGTYPEFKYKDSIVALGASGFAWTEEDIATYVKDPGAFLKEKLDDKKAKTEMAFKLAKGGEDVAAYLASVVK | soluble |
| GDDYTQQQGEVEKQPNIDELKKRMEQSRLNKLRGDLDQLIESDPKLRALRPHLKIDLVQEGLRIQIIDSQNRPMFKTGSAEVEPYMRDILRAIAPVLNGIPNRISLAGHTDDFPYANGEKGYSNWELSADRANASRRELVAGGLDNGKVLRVVGMAATMRLSDRGPDDAINRRISLLVLNKQAEQAILHENAESQNEPVSVLQQHHHHHH | soluble |
